For 2 molecules, EC50, binding result and Kd results are on record in US20250313631A1 (HUMMINGBIRD BIOSCIENCE PTE, published 2025).

The target of assay [1] is T1, recombinant human VISTA (His-tagged) (human, UniProt Q9H7M9 33-194).
T1 construct: bought soluble protein (Sino Biological); also called hVISTA; human VISTA polypeptide
The experiment in a line: antigen-binding ELISA; HMBD-002 10 mg/mL in F3, day 0. For orientation: An ELISA detects its analyte on a solid surface through an enzyme-linked reagent.

The target of assay [2] is T1, recombinant human VISTA (His-tagged). The experiment in a line: antigen-binding ELISA; HMBD-002 10 mg/mL in F5, day 0.
For assay [3] the target is unchanged. The experiment in a line: antigen-binding ELISA; HMBD-002 in F1, day 20 at 40°C.
For assay [4] the target is unchanged. The experiment in a line: antigen-binding ELISA; HMBD-002 in F2, day 20 at 40°C.
The target is the same in assay [5]. The experiment in a line: antigen-binding ELISA; HMBD-002 in F3, day 10 at 40°C.
For assay [6] the target is unchanged. Put plainly: antigen-binding ELISA; HMBD-002 in F3, day 30 at 40°C.
The target is the same in assay [7]. Put plainly: antigen-binding ELISA; HMBD-002 in F4, day 30 at 40°C.
For assay [8] the target is unchanged. Put plainly: antigen-binding ELISA; HMBD-002 in F5, day 20 at 40°C.
For assay [9] the target is unchanged. The experiment in a line: antigen-binding ELISA; HMBD-002 in F6, day 10 at 40°C.
The target is the same in assay [10]. The experiment in a line: antigen-binding ELISA; HMBD-002 in F8, day 10 at 40°C.
Assay [11] concerns the target T2, cynomolgus macaque VISTA expressed on cells (cynomolgus macaque, UniProt A0A7N9IB00 33-311).
T2 construct: whole, on cells; also called NHP VISTA on HEK293T cells; VISTA on NHP CD11b+ myeloid cells
The experiment in a line: flow cytometry, HEK293T cells expressing the NHP VISTA ortholog. (In general: A flow cytometer gives signals particle by particle.)

Assay [12] deals with T3, human B7H4 (human, UniProt Q7Z7D3 25-258, limits assumed).
T3 construct: also called VTCN1
T3 sequence (looked up): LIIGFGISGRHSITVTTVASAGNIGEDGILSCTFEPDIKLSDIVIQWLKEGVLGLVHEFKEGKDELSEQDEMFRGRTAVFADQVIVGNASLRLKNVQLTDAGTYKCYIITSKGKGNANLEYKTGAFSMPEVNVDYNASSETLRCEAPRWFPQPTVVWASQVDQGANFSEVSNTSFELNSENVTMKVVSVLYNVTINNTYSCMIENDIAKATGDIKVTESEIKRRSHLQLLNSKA
The experiment in a line: ELISA, plate coated with human B7H4, antibody titrated.

Assay [13] has as its target T1, recombinant human VISTA (His-tagged). The experiment in a line: antigen-binding ELISA; reference standard run with the day 10 samples.
The target is the same in assay [14]. Put plainly: ELISA on coated human VISTA, antibody diluted in buffer of pH 5.5.
Assay [15] shares this target. The experiment in a line: SPR (Biacore), VISTA-HIS captured, antibody as analyte, 1:1 model; SPR (Biacore), human VISTA. On the technique in general: SPR reads the build-up and loss of mass on a sensor chip optically.
Another assay concerns the target T4, human FcγRIII (CD16a) (human, UniProt P08637 17-208).
T4 construct: also called human CD16a
Put plainly: ELISA, plate coated with human CD16a (FcγRIII), detection with HRP anti-human Fc antibody.

The next assay concerns the target human PD-1 (human, UniProt Q15116 25-167). The experiment in a line: ELISA, plate coated with the antigen.
Assay [16] has as its target T3, human B7H4. Put plainly: ELISA, plate coated with the antigen.
The target of a further assay is T5, human B7H6 (human, UniProt Q68D85 25-262).
T5 construct: also called NCR3LG1
T5 sequence (looked up): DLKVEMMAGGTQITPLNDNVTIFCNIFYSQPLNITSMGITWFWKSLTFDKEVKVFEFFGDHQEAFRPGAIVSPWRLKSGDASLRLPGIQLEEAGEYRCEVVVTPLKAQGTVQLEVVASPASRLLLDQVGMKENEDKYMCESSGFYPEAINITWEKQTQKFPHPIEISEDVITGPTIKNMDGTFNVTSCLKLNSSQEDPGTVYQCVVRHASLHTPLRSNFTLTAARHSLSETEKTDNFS
The experiment in a line: ELISA, plate coated with the antigen.

The target of another assay is T6, human B7H7 (human, UniProt Q9UM44 23-344).
T6 construct: also called HHLA2
T6 sequence (looked up): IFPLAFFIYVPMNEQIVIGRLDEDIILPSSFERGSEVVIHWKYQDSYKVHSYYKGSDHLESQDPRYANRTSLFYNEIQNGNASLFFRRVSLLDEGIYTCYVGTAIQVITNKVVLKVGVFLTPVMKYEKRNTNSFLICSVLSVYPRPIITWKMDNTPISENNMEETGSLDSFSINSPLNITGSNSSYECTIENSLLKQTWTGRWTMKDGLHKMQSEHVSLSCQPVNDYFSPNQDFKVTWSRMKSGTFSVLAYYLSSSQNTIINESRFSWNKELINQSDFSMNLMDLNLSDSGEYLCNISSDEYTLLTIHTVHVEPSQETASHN
The experiment in a line: ELISA, plate coated with the antigen.

The next assay addresses T7, human CD47 (human, UniProt Q08722 19-139).
T7 construct: also called hCD47
Put plainly: BLI (Octet), His-tagged hCD47 on anti-Penta-HIS biosensor, antibody 1500-46.9 nM.

What is called EC50 is the concentration needed to bring the measured effect to its halfway point. As a reminder, the Kd is a measure of binding affinity in units of concentration.

T7 sequence (Q08722 19-139 limits assumed): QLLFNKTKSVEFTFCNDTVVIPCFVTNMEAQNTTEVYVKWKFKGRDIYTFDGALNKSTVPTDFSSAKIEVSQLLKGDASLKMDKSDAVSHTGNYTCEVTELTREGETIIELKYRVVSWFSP
T4 sequence (P08637 17-208 limits assumed): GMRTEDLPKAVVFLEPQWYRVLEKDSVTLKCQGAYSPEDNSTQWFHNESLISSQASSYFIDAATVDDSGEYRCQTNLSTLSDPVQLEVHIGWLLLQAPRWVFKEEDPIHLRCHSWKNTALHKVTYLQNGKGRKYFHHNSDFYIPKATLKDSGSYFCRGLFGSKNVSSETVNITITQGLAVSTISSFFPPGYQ
Sequence of human PD-1 (Q15116 25-167 limits assumed): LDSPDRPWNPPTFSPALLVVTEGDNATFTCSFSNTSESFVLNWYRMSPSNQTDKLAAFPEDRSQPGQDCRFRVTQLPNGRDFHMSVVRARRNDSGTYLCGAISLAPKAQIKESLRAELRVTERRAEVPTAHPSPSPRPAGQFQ

B1: V4-C26 hIgG4 (antibody)
heavy: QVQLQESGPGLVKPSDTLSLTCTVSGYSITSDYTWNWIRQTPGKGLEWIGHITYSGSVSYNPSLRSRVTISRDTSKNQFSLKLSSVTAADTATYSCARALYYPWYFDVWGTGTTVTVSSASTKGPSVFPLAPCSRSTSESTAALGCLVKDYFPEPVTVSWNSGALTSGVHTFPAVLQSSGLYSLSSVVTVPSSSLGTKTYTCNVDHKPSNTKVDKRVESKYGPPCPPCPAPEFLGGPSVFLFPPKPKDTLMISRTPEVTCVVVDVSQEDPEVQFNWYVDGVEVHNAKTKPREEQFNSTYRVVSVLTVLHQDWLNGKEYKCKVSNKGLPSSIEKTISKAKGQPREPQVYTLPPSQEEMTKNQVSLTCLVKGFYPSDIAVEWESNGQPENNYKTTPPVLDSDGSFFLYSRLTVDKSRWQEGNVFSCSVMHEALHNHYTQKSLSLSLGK
light: EIVLTQSPATLSLSPGERATLSCRASSSVGYIHWYQQKPGQAPRPIIYTTSNRATGIPARFSGSGSGTDNTLTISSLEPEDSAVYYCQQWSSYPPITFGGGTKLEVKRTVAAPSVFIFPPSDEQLKSGTASVVCLLNNFYPREAKVQWKVDNALQSGNSQESVTEQDSKDSTYSLSSTLTLSKADYEKHKVYACEVTHQGLSSPVTKSFNRGEC
notes: human IgG4 (S228P)/kappa format; also called HMBD-002; HMBD-002-V4C26
Turning to B1, the half-maximal effective concentration (EC50) was 0.0308 nM in [1]; 0.031 nM in [2]; 0.0172 nM in assay [3]; 0.0197 nM in assay [4]; 0.0348 nM in assay [5]; 0.0227 nM in assay [6]. Besides, the EC50 amounted to 0.0227 nM in [7]; 0.0239 nM in assay [8]; 0.0306 nM in assay [9]; 0.028 nM in assay [10]; 2.57 nM in assay [11]; 0.0253 nM in [13]. The half-maximal effective concentration (EC50) in assay [14] came out at 0.0731 nM. Also, the binding result is given as “no binding (tested: about 3e-8 M)” with human B7H4 [12] and “no binding (tested: about 2e-7 M)” with human FcγRIII (CD16a). In addition, the Kd in [15] stood at 0.407 nM.

B2: anti-VISTA clone 4M2-C12 IgG1 (antibody)
heavy: not shown
light: DIVITQTPAILSTSPGEKVTMTCRASSSVGYIHWYQQKPGSSPKPWIYATSNLASGVPARFSGSGSGTSNSLTITRVEAEDAATYYCQQWSSYPPITFGGGTKLEVKRTVAAPSVFIFPPSDEQLKSGTASVVCLLNNFYPREAKVQWKVDNALQSGNSQESVTEQDSKDSTYSLSSTLTLSKADYEKHKVYACEVTHQGLSSPVTKSFNRGEC
notes: mouse variable regions on human IgG1/kappa constant regions; also called V4; V4pr
As to B2, the binding result is recorded as “no binding (tested: log -7.5 M)” in the assay with human PD-1; “no binding (tested: log -7.5 M)” with human B7H4 [16]; “no binding (tested: log -7.5 M)” in the assay with human B7H6; “no binding (tested: log -7.5 M)” in the assay with human B7H7; “no binding (tested: 1500 nM)” with human CD47.
